Source: patent publication US20250339529A1 (MINK THERAPEUTICS, published 2025)
Substitutions are numbered along the chain they refer to. Names and notes keep the numbering of the source.

Experiments:
[1] = molecular target: T1, BCMA antigen (UniProt Q02223 1-54, limits assumed); assay: SPR (Biacore T200), IgG captured on a protein A chip, huBCMA as analyte, 1:1 Binding model, 25 C
T1 construct: also called wild type BCMA
T1 sequence (looked up): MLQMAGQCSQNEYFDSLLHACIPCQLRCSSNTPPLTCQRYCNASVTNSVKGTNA
Experimental: (§1) To test the affinity of BCMA F6G variants their binding domains were expressed as IgGs and captured to a protein A chip. BCMA antigen was flowed over the chip at […] concentrations. Experiment was run on Biacore T200. […] The CARs were expressed as IgGs and captured to a protein A chip. BCMA antigen was flowed over the chip at […]. concentrations. Experiment was run on Biacore T200.

[2] = molecular target: T2, BCMA-Fc antigen (UniProt Q02223 1-54); assay: flow cytometry, lentivirally transduced iNKT cells stained with BCMA-Fc and A647 anti-human IgG Fc; Donor 1, Enriched on K562-BCMA; Non transduced control 7.76
T2 construct: Immobilized on a protein A chip
T2 sequence (looked up): T1 sequence (looked up)
Experimental: (§2) Purified and a-GalCer expanded iNKT cells from 2 donors were stimulated with TransAct (Miltenyi) and transduced with lentivirus (MOI 3) encoding for various 2nd Generation BCMA-CAR molecule and secreted IL-15. Constructs including F6G-Var2 IL-15, F6G variant 2 (no IL-15), F1G-IL-15, bb2121-IL-15, and CD19-CAR-IL-15 were tested. Cells were expanded for 10 to 12 days then transduced cells were co-cultured with K562 cells expressing BCMA at a ratio iNKT:K562 of 1:1. Cells were cultured and enriched with media supplemented with supporting cytokines IL-2 (100 IU/mL), IL-15 (100 UI/mL) and IL-21 (20 IU/mL). […]
(§3) Transduced cells pre-co-culture and enriched cells post co-culture with K562-BCMA were analyzed for CAR expression by flow cytometry (FIG. 17). iNKT cells were incubated with a LIVE/DEAD (Biolegend) reagents to separate live from dead cells and then stained for cell surface markers BCMA-CAR or CD19-CAR, BUV395 CD8 (BD, clone RPA-T8) and BUV563 CD4 (BD, clone OKT4). BCMA-CAR expression was detected with an unconjugated, primary BCMA-Fc reagent (AcroBiosystems) while CD19 CAR expression was detected with an unconjugated, primary CD19-Fc reagent (AcroBiosystems). […]

[3] = molecular target: T2, BCMA-Fc antigen; assay: flow cytometry, lentivirally transduced iNKT cells stained with BCMA-Fc and A647 anti-human IgG Fc; Donor 2, Transduced; Non transduced control 0.74
Experimental: as §2, §3

[4] = molecular target: T2, BCMA-Fc antigen; assay: flow cytometry, lentivirally transduced iNKT cells stained with BCMA-Fc and A647 anti-human IgG Fc; Donor 2, Enriched on K562-BCMA; Non transduced control 1.34
Experimental: as §2, §3

[5] = molecular target: T2, BCMA-Fc antigen; assay: flow cytometry, lentivirally transduced iNKT cells stained with BCMA-Fc and A647 anti-human IgG Fc; Donor 1, Transduced; Non transduced control 2.00
Experimental: as §2, §3

[6] = molecular target: T1, BCMA antigen; assay: flow cytometry, iNKT cells transiently transfected with BCMA CAR-RFP mRNA and stained with soluble BCMA-APC, two donors
Experimental: INKT cells from two donors were transiently transfected with F6G variants and anti-BCMA-CAR iNKT cell-mediated killing of tumor cells were tested. Flow cytometry analysis of RFP expression to show CAR expression and antigen binding with BCMA-APC in BCMA-CAR iNKTs (FIGS. 13A-13C). The level of BCMA expression on each tumor cell line was assessed by flow cytometry where left peak show isotype staining and right peak show BCMA expression (FIG. 13D). iNKT cells expressing anti-BCMA CAR (as shown in FIG. 13A) were co-cultured with tumor cell lines endogenously expressing BCMA or K562 for 24 hrs at 3 different effector-to-target ratios. After 24 hr co-coculture, cytotoxicity assay was analyzed by flow cytometry for percentage of dead target cells (FIG. 13E), percentage of CD69/CD25 co-expressing iNKT cells (FIG. 13F) and percentage of 4-1BB expressing iNKT cells (FIG. 13G).

[7] = molecular target: T1, BCMA antigen; assay: SPR (Biacore 4000), cell-free expressed scFv on BCMA antigen
Text: Further, a germlined version of F6 (F6G) was affinity matured by a combination of two methods: Accelerated Drug Discovery (ADD) approach and affinity maturation of by phage libraries. FIGS. 9A-9C describe the ADD approach. FIG. 9A is a schematic representation of the CDR positions undergone mutagenesis. Each amino acid in the heavy and light CDRs was substituted with 8 different amino acids; Tyr, Ser, Pro, Leu, his, Gly, Asp, Asn. Fragments containing single amino acids substitutions were generated by mutagenesis PCR. The PCR fragments were then used as a template to express the scFv in a cell free system. Affinity KD (M) values of mutant scFvs binding to BCMA antigen. Experiment was run in Biacore 4000. The dotted line indicates the binding of the parental F6G clone. KD below the dotted line means improvement in affinity. […] Individual Biacore sensorgrams for E to Y substitution in position 49 of CDRL2 are shown (FIG. 9C).

[8] = molecular target: T1, BCMA antigen; assay: SPR (Biacore T200), IgG captured on a protein A chip, huBCMA as analyte, 1:1 Binding model, 25 C; same panel as in FIG. 11
Experimental: as §1

Question: With Bb2121 huIgG1 (antibody) as the molecule, how does the Kd [1] read?
Answer: The Kd was 1.67 nM.

Question: And the koff [1]?
Answer: The koff was 0.00484 s⁻¹.

Question: What about the kon [1] of the same molecule?
Answer: Its kon is 2.89e+06 M⁻¹ s⁻¹.

Question: How did the % of cells in the CAR+ gate [2] turn out when “bb2121 CAR on iNKT cells (clinical benchmark)” was run?
Answer: Its % of cells in the CAR+ gate is 95.5%.

Question: What about the % of cells in the CAR+ gate [3] of the same molecule?
Answer: Its % of cells in the CAR+ gate is 36.2%.

Question: What about the % of cells in the CAR+ gate [4] of the same molecule?
Answer: Its % of cells in the CAR+ gate is 94.1%.

Question: And the % of cells in the CAR+ gate [5]?
Answer: Its % of cells in the CAR+ gate is 15.9%.

B1: F1G scFv CAR on iNKT cells (other)
chain: QVQLVQSGAEVKKPGASVKVSCKASGYTFTSYGISWVRQAPGQGLEWMGWISAYNGNTYYAEDLQGRLTMTTDTSTSTAYMELRSLRSDDTAVYYCAREGSYYDSSGYYLPYWGQGTLVTVSSGGGGSGGGGSGGGASQSALTQPRSVSGSPGQSVTISCTGTSSDVGAYNYVSWYQQHPGKAPKLMIYDVTERPSGVPDRFSGSKSGNTASLTISGLQAEDEADYYCSSYTSSSIAFGGGTKLTVLGQPAAATTTPAPRPPTPAPTIASQPLSLRPEACRPAAGGAVHTRGLDFACDIYIWAPLAGTCGVLLLSLVITLYCKRGRKKLLYIFKQPFMRPVQTTQEEDGCSCRFPEEEEGGCELRVKFSRSADAPAYQQGQNQLYNELNLGRREEYDVLDKRRGRDPEMGGKPRRKNPQEGLYNELQKDKMAEAYSEIGMKGERRRGKGHDGLYQGLSTATKDTYDALHMQALPPR
notes: Chimeric antigen receptor on iNKT cells with secreted IL-15; also called F1G-IL-15; F1G IL-15
Question: Which “% of cells in the CAR+ gate” value [2] does the source give for B1 here?
Answer: The value was 31.4%.

Question: What about the “% of cells in the CAR+ gate” value [3] of the same molecule?
Answer: The value was 20.9%.

Question: What about the “% of cells in the CAR+ gate” value [4] of the same molecule?
Answer: Its value is 93.1%.

Question: And the “% of cells in the CAR+ gate” value [5]?
Answer: The value was 20.7%.

B2: F6G-Var1 (other)
CAR polypeptide: QVQLVQSGAEVKKPGASVKVSCKASGYTFTGYYMHWVRQAPGQGLEWMGWMNPNSGNTGYAQKFQGRVTMTRNTSISTAYMELSSLRSEDTAVYYCARAQWEPLDYWGQGTLVTVSSGGGGSGGGGSGGGASSYELTQPPSVSVSPGQTARITCSGDALPKKYTYWYQQKSGQAPVLVIYYDTKRPSGIPERFSGSSSGTMATLTISGAQVEDEADYYCLSTDPTGQESVFGGGTKLTVLGQPAAATTTPAPRPPTPAPTIASQPLSLRPEACRPAAGGAVHTRGLDFACDIYIWAPLAGTCGVLLLSLVITLYCKRGRKKLLYIFKQPFMRPVQTTQEEDGCSCRFPEEEEGGCELRVKFSRSADAPAYQQGQNQLYNELNLGRREEYDVLDKRRGRDPEMGGKPRRKNPQEGLYNELQKDKMAEAYSEIGMKGERRRGKGHDGLYQGLSTATKDTYDALHMQALPPR
notes: also called F6G-Var1 CAR on iNKT cells (transient, CAR-RFP mRNA)
Question: Does B2 bind [6]?
Answer: Result: binds

B3: F6G-Var4 (other)
CAR polypeptide: B2 CAR polypeptide with D223H, T225A
notes: also called F6G-Var4 CAR on iNKT cells (transient, CAR-RFP mRNA)
Question: Does B3 bind [6]?
Answer: Result: binds

B4: F6G (other)
CAR polypeptide: B2 CAR polypeptide with Y181E
notes: also called F6G CAR on iNKT cells (transient, CAR-RFP mRNA)
Question: Does B4 bind [6]?
Answer: Result: binds

B5: F6G-Var3 (other)
CAR polypeptide: B2 CAR polypeptide with H35Q, N54I, D223N, Q227H
notes: also called F6G-Var3 CAR on iNKT cells (transient, CAR-RFP mRNA)
Question: Does B5 bind [6]?
Answer: Result: binds

B6: F6G-Var6 (other)
CAR polypeptide: B2 CAR polypeptide with G31E, H35K, S55T, N57K
notes: also called F6G-Var6 CAR on iNKT cells (transient, CAR-RFP mRNA)
Question: Does B6 bind [6]?
Answer: Result: binds

B7: F6G-Var5 (other)
CAR polypeptide: B2 CAR polypeptide with D223N, Q227H
notes: also called F6G-Var5 CAR on iNKT cells (transient, CAR-RFP mRNA)
Question: Does B7 bind [6]?
Answer: Result: binds

B8: F6G scFv (germlined F6, parental clone of the ADD mutagenesis) (scFv)
scFv: QVQLVQSGAEVKKPGASVKVSCKASGYTFTGYYMHWVRQAPGQGLEWMGWMNPNSGNTGYAQKFQGRVTMTRNTSISTAYMELSSLRSEDTAVYYCARAQWEPLDYWGQGTLVTVSSGGGGSGGGGSGGGASSYELTQPPSVSVSPGQTARITCSGDALPKKYTYWYQQKSGQAPVLVIYEDTKRPSGIPERFSGSSSGTMATLTISGAQVEDEADYYCLSTDPTGQESVFGGGTKLTVLGQP
notes: scFv expressed in a cell free system from PCR fragments; also called parental F6G clone; germline F6G
Question: Does B8 bind [7]?
Answer: Result: binds

B9: F6G scFv with E to Y substitution in position 49 of CDRL2 (scFv)
scFv: B8 scFv with E181Y
notes: Cell free expressed scFv; also called E to Y substitution in position 49 of light CDRL2
Question: Does B9 bind [7]?
Answer: Result: binds

B10: F6Gvar2 (antibody, V domains shown)
VH: QVQLVQSGAEVKKPGASVKVSCKASGYTFTGYYMQWVRQAPGQGLEWMGWMNPISGNTGYAQKFQGRVTMTRNTSISTAYMELSSLRSEDTAVYYCARAQWEPLDYWGQGTLVTVSS
VL: SYELTQPPSVSVSPGQTARITCSGDALPKKYTYWYQQKSGQAPVLVIYYDTKRPSGIPERFSGSSSGTMATLTISGAQVEDEADYYCLSTHPAGQESVFGGGTKLTVLG
Question: How did the Kd [1] turn out when B10 was run?
Answer: Its Kd is 2.35 nM.

Question: And the koff [1]?
Answer: Its koff is 0.000325 s⁻¹.

Question: What about the kon [1] of the same molecule?
Answer: Its kon is 138000 M⁻¹ s⁻¹.

Question: What about the Kd [8] of the same molecule?
Answer: Its Kd is 2.35 nM.

Question: And the koff [8]?
Answer: Its koff is 0.000325 s⁻¹.

Question: What about the kon [8] of the same molecule?
Answer: The kon was 138000 M⁻¹ s⁻¹.

B11: F6G huIgG1 (antibody, V domains shown)
VH: B10 VH with Q35H, I54N
VL: B10 VL with Y49E, H91D, A93T
notes: also called germline F6G expressed as human IgG1
Question: For B11, which Kd [1] is on record?
Answer: The Kd was 97.8 nM.

Question: And the koff [1]?
Answer: Its koff is 0.0197 s⁻¹.

Question: What about the kon [1] of the same molecule?
Answer: Its kon is 201000 M⁻¹ s⁻¹.

B12: F6Gvar3 (antibody, V domains shown)
VH: B10 VH
VL: B10 VL with H91N, A93T, Q95H
Question: With B12 as the molecule, how does the Kd [1] read?
Answer: The Kd was 2.12 nM.

Question: What about the koff [1] of the same molecule?
Answer: Its koff is 0.000317 s⁻¹.

Question: What about the kon [1] of the same molecule?
Answer: Its kon is 150000 M⁻¹ s⁻¹.
